Reference: US12441803B2, “Engineered CD25 polypeptides and uses thereof” (iBio, Inc., priority 2018, dated 2025)
Residue numbers refer to the chain shown, from its start. Each block holds one molecule with its values, some of them ahead of it.

Target: T1, CD25 (Homo sapiens, UniProt P01589)
T1 sequence (P01589 22-272): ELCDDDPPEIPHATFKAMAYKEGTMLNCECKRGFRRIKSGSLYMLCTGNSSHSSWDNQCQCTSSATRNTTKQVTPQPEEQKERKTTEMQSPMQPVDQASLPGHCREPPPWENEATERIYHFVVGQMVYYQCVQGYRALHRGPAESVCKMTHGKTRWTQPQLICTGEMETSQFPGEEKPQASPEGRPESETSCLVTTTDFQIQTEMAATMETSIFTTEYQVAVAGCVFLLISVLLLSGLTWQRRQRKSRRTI
Test: Binding of human IgG1 format antibodies to CD25 by Octet
Conditions: read-out: Biosensor Measured CD25 Affinity
Source text: Thirty antibodies were selected for additional testing as full-length immunoglobulins. The heavy and light chain sequences were cloned into human immunoglobulin G (IgG1) format and expressed and purified.

B4: YU401-G07: anti-CD25 scFv clone, SEQ ID NO: 831 (protein, listed as Mus musculus)
scFv: LGRSLRLSCAASGFTFSSYGMHWVRQAPGKGLEWVAVISYDGSNKYYADSVKGRFTISRDNSKNTLYLQMNSLRAEDTAVYYCAKGDVNYGMDVWGQGTTVTVSSCAKGDVNYGMDVWSYVLTQPPSVSVAPGQTARISCGGSNIGSKTVNWYRKKAGQAPVLVVYDGRDRPSGIPERFSGSNSGNAATLIISRVEVGDEADYYCQVWDTSGDLHWAFGGGTKLTVLCQVWDTSGDLHWAF
Kd: 15.3 nM

B5: YU397-D01: anti-CD25 scFv clone, SEQ ID NO: 817 (protein, listed as Mus musculus)
scFv: PSGTLSLTCAVSGGSISSSNWWSWVRQPPGKGLEWIGEIYHSGSTNYNPSLKSRVTISVDKSKNQFSLKLSSVTAADTAVYYCARARGGRYFDYWGQGTLVTVSSCARARGGRYFDYWDIVLTQSPSFLSASVGDRVTITCRASQGISTYLAWYQQKPGTAPKVLMYAASTLHSGVPSRFSGSGSGTEFTLTISSLQPEDFAIYYCQQLNGYPTTFGGGTRVEIKCQQLNGYPTTF
Kd: 3.86 nM

B6: YU401-B01: anti-CD25 scFv clone, SEQ ID NO: 827 (protein, listed as Mus musculus)
scFv: PGSSVKVSCKASGGTFSSYAISWVRQAPGQGLEWMGGIIPIFGTANYAQKFQGRVTITADESTSTAYMELSSLRSEDTAVYYCAREMYYYYGMDVWGQGTTVTVSSCAREMYYYYGMDVWDIVMTQSPSSLSASVGDRVTITCRASQSIITYLNWYQQKPGKVPKLLIYAASSLQSGVPSRFSGSGSGTDFTLTISSLQPEDFATYYCQQSYSTPPTFGQGTKLEIKCQQSYSTPPTF
Kd: 70.4 nM

B7: YU390-A11: anti-CD25 scFv clone, SEQ ID NO: 736 (protein, listed as Mus musculus)
scFv: PGRSLRLSCAASGFTFSSYGMHWVRQAPGKGLEWVAVISYDGSNKYYADSVKGRFTISRDNSKNTLYLQMNSLRAEDTAVYYCAKELLEGAFDIWGQGTMVTVSSCAKELLEGAFDIWSYVLTQPPSLSVAPGQTARITCGGDNIETKSVHWYQQRPGQAPVLVVYDDDDRPSGIPERFSGSNSGNTATLTISRVEAGDEADYYCQVWDSSSGHREVFGGRTKPALLCQVWDSSSGHREVF
Kd: 13.3 nM

B9: YU400-B07: anti-CD25 scFv clone, SEQ ID NO: 822 (protein, listed as Mus musculus)
scFv: PGRSLRLSCAASGFTFSSYGMHWVRQAPGKGLEWVAVISYDGSNKYYADSVKGRFTISRDNSKNTLYLQMNSLRAEDTAVYYCAKGDVNYGMDVWGQGTTVTVSSCAKGDVNYGMDVWSYVLTQPPSVSVAPGKTARITCGGNNIGSKSVHWYQQKPGQAPVLVVYDDTDRPSGIPERFSGSNSGNTATLTISRVEAGDEADYYCQVWDSSSDLLWVFGGGTKLAVLCQVWDSSSDLLWVF
Kd: 57.8 nM

B10: YU392-B11: anti-CD25 scFv clone, SEQ ID NO: 750 (protein, listed as Mus musculus)
scFv: PGATVKISCKVSGYTFTDYYMHWVQQAPGKGLEWMGLVDPEDGETIYAEKFQGRVTITADTSTDTAYMELSSLRSEDTAVYYCAVEGGRAPGTYYYDSSGLAYWGQGTLVTVSSCAVEGGRAPGTYYYDSSGLAYWQAGLTQPPSASGTPGQRVTISCSGSSSNIGSNYVYWYQQLPGTAPKLLIYSNNQRPSGVPDRFSGSKSGTSASLAISGLRSEDEADYYCATWDDSLSGVVFGGGTKLTVLCATWDDSLSGVVF
Kd: 65.6 nM

B11: YU389-A03: anti-CD25 scFv clone, SEQ ID NO: 730 (protein, listed as Mus musculus)
scFv: PSQTLSLTCTVSGGSISSGGYYWSWIRQHPGKGLEWIGYIYYSGSTYYNPSLKSRVTISVDTSKNQFSLKLSSVTAADTAVYYCARGNLWSGYYFWGQGTLVTVSSCARGNLWSGYYFWQSVLTQPPSVSAAPGQKVTISCSGSSSNIGNNFVSWYQQVPGTAPKLLTYDSTKRPAGIPDRFSGSKSGTSATLEIAGLQTGDEADYYCGSWDTNLSGYVFGTGTKVTVLCGSWDTNLSGYVF
Kd: 9.55 nM

B12: YU398-A11: anti-CD25 scFv clone, SEQ ID NO: 818 (protein, listed as Mus musculus)
scFv: PGRSLRLSCAASGFTFSSYGMHWVRQAPGKGLEWVAVISYDGSNKYYADSVKGRFTISRDNSKNTLYLQMNSLRAEDTAVYYCAKGQGDGMDVWGQGTTVTVSSCAKGQGDGMDVWYELTQPPSASGTPGQRVTISCSGSSSNVGSRTVSWFQQLPGTAPKLLIYSNNLRPSGVPDRFSGSKSGTSASLAISGLQSEDEADYYCAAWDDSLIGHVFGTGTKVTVVCAAWDDSLIGHVF
Kd: 12.1 nM

Continued by falling Kd, values first:

Kd: 54.6 nM
B1: YU400-D09: anti-CD25 scFv clone, SEQ ID NO: 823 (protein, listed as Mus musculus)
scFv: PGSSVKVSCKASGGTFSSYAISWVRQAPGQGLEWMGGIIPIFGTANYAQKFQGRVTITADESTSTAYMELSSLRSEDTAVYYCARDFNPFSITIFEMDVWGQGTTVTVSSCARDFNPFSITIFEMDVWQSVLTQPPSVSAAPGQKVTISCSGSSSNIGNNYVSWYQQLPGTAPKLLIYDNNKRPSGIPDRFSGSKSGTSATLGITGLQTGDEADYYCGTWDSSLSALVFGGGTKLTVLCGTWDSSLSALVF

Kd: 31.9 nM
B2: YU403-G05: anti-CD25 scFv clone, SEQ ID NO: 835 (protein, listed as Mus musculus)
scFv: PSGDLSLTCDVSGGSISRSNWWIWVRQPPGKGLEWIGEIYHTGSTNYNPSLKRRVTISVDKSKNQFSLNLSSVTAADTAVYYCARGKGSYAFDIWGLGTMVTVSSCARGKGSYAFDIWVLTQPHSVSESPGKTVTISCTGSGGNIARNYVQWYQHRPGRAPSTVIYEDDRRPSGVPDRFSGSTDISSNSASLTISGLKTEDEADYYCQSYDGNNHMVFGGGTRVTVLCQSYDGNNHMVF

Kd: 13.7 nM
B8: YU390-B12: anti-CD25 scFv clone, SEQ ID NO: 738 (protein, listed as Mus musculus)
scFv: B7 scFv with R221G, P224L, A225T, L226V

Kd: 12.4 nM
B3: YU392-A09: anti-CD25 scFv clone, SEQ ID NO: 749 (protein, listed as Mus musculus)
scFv: PGATVKISCKVSGYTFTDYYMHWVQQAPGKGLEWMGLVDPEDGETIYAEKFQGRVTITADTSTDTAYMELSSLRSEDTAVYYCATEGRYGMDVWGQGTTVTVSSCATEGRYGMDVWQAVLTQPPSVSGTPGQRVTISCSGNNFNIGNNLVYWYQQLPGTAPKLLIYANDERPSGVPDRFSGSKSGTSASLAISGLRSEDDADYYCATWDDSLSGVVFGGGTKLTALCATWDDSLSGVVF
